The values that follow come from patent publication US20210008161A1 (CRISPR THERAPEUTICS, published 2021).

For this assay, the target named is p53-binding protein 1 (53BP1) (human, UniProt Q12888 1-1972). As to the kind of experiment: cell-based or functional assay.
p53-binding protein 1 (53BP1), sequence (Q12888 whole entry): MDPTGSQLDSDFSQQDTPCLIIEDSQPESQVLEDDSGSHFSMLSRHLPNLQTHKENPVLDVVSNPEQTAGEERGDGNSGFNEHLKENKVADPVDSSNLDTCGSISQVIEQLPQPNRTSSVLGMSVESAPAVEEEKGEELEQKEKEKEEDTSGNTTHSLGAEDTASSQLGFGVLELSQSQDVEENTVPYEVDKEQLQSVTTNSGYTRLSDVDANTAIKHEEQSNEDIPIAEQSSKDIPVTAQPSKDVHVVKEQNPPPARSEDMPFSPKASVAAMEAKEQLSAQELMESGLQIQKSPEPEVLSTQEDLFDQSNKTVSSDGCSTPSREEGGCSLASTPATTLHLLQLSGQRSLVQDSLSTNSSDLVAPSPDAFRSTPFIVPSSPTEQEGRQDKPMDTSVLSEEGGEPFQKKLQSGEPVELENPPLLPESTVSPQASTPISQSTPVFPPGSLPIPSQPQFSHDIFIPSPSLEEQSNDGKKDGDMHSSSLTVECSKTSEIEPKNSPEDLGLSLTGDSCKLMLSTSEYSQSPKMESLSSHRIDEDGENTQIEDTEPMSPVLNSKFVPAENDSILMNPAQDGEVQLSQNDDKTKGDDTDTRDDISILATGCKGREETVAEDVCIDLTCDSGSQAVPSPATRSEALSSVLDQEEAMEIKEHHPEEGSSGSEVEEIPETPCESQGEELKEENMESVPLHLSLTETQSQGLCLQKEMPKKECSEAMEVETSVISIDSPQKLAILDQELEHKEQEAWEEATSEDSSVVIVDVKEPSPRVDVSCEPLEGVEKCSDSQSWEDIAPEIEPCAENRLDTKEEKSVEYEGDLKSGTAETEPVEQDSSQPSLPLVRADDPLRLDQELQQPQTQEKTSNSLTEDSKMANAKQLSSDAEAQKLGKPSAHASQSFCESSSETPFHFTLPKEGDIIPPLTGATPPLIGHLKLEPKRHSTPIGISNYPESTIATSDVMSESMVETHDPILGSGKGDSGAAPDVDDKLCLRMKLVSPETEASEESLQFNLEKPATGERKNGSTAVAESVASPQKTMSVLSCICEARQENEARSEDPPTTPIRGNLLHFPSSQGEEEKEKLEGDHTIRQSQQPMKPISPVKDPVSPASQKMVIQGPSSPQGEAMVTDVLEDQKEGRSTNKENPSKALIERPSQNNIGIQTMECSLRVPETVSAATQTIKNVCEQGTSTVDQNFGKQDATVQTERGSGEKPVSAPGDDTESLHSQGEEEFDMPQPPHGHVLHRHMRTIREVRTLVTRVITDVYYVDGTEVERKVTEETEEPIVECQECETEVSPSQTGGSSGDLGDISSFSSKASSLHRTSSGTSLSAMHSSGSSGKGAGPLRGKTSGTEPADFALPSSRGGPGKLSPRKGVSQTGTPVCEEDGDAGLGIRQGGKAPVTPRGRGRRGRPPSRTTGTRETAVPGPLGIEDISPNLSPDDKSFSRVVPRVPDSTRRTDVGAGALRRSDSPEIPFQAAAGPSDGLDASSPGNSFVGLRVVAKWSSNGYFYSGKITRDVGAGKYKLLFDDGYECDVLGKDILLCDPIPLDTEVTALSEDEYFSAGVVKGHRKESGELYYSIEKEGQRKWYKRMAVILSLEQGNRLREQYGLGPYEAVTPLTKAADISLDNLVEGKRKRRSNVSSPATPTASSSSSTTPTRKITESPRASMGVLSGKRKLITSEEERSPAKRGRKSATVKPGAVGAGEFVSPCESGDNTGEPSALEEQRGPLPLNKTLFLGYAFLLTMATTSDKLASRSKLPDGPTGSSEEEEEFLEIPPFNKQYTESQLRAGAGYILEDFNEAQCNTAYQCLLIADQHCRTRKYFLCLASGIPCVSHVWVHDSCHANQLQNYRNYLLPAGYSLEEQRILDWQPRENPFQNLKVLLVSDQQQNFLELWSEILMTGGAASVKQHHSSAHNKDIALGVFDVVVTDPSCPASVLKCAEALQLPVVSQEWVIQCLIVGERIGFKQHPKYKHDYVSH

B1: i53 polypeptide (polypeptide inhibitor of 53BP1) (designed binder)
chain: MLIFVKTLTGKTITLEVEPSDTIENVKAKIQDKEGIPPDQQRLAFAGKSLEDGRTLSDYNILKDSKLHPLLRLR
Regarding B1, the “HDR efficiency (GFP insertion at the HBB locus, CD34-expressing LT-HSPCs, GFP fluorescence)” value was approximately 1.3 fold; the “INDEL frequency at the HBB locus relative to RNP+AAV (CD34-expressing LT-HSPCs, TIDE analysis)” value was 1.7 fold; the “fold increase in HDR at the HBB locus over RNP+AAV alone (CD34-expressing LT-HSPCs, NGS assay)” value was found to be 1.4 fold; the “fold increase in HDR efficiency over RNP+AAV alone (LT-HSPCs mobilised with Mozobil+GCSF)” value was approximately 1.5 fold.
